Assay results reported in the supplement of paper PMC12042874.
± gives the uncertainty stated by the source.

test: amyloid nucleation score (Sup35N fusion, yeast selection) (log enrichment); library NNK3; higher = more nucleation; inactive = no reads after selection
Procedure, shortened: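 The nucleation score is the DiMSum log enrichment of output over input reads, centred on the mode score of non-aggregating sequences. Only sequences with 100 or more input reads were scored, using Illumina sequencing of input and output plasmid inserts. Psi-negative yeast expressing Sup35N fused to peptides of 20 random codons were induced 24 hours with 100 μM copper sulfate and grown 7 days at 30°C on medium lacking adenine and uracil.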

Substance	amyloid nucleation score
WLSYKSH	0.392 ± 0.54
YMSYRSLMNSLTSIL	inactive
LFMCIAMM	0.284 ± 0.46
SQLVVLCCCRSPSFYCGVL	1.32 ± 0.17
YLWPLFFSFE	inactive
IQSKRRPSDCLPKS	inactive
TVIRRLYCLNGLVANTSFAV	inactive
RNNDVSEVKMLMKRELGFYN	inactive
FNWRLSSITDSSVYLPSWNL	inactive
SSEHFGCEASGVAER	inactive
YPMTQALVTSWVLHCTAMKM	inactive
YIRLGWNVSWMLSSSEYVSH	0.853 ± 0.12
SCVDPVRWLRGASF	inactive
QVCPTLWYEVMCLN	inactive
HIRFWSDNRT	0.468 ± 0.2
SECWKAFDLGYDNKLSIPRI	inactive
FYFPLYDL	inactive
AWTGGSLGLTNI	inactive
INFNLVHRLEVFWRVI	inactive
LKDWVRYGVEIQAVSMGILV	0.221 ± 0.16
GRSYREIMDSIFCGQFFYNK	2.45 ± 0.077
YGVSMVVENYL	inactive
LGVWRGIGPWRWAKKRWRVA	inactive
VFWLRYMNVSRANARGNAS	inactive
FMGLGLQLRLIHLSRG	inactive
RFPDLLQMVRAKAPDPLQQH	inactive
QWKKWLDTACKWVGVGGTIR	inactive

Substance	amyloid nucleation score
RCAPFNFFPCHIWRYVLTRK	inactive
CINIGVMDEWGVAVTLLVKN	inactive
IVHVSLWKMSISPIWEWSMI	0.006 ± 0.37
MDSFRRDEYFKSLFVMLYLS	inactive
IKNYCIIYSETPGRNKCGLR	1.01 ± 0.22
SYRKEFSVPMATGDDSTPQH	inactive
SQVGWG	inactive
FYFDRTSVIMRLFSMWNNFG	inactive
ISKSDLSLFN	inactive
RVTFWPFVVSAFRVMYGICK	inactive
SSFFRMLVLIVMRCQDTSNR	inactive
RSRDIGVFTGVQCLVRYRRY	inactive
TSTGYNPIYYIMMFN	0.677 ± 0.32
LSFAVKCFRIGDMNAFNTFI	inactive
MYFILASSISILFGIKVFPM	inactive
MGVSADTYYNIRM	0.161 ± 0.43
WCTFKNLPLWYWTWCAFQGG	inactive
YYQLKSHVVRDGHVWTICGS	inactive
RFGITLVFEYPAVEFVDTTI	inactive
LFGCNERCFYFAF	inactive
NGTATADRSNKSVPFPSI	inactive
MLYRCLAKYRMWHYVDLSLL	inactive
YNGLVGLSNPCTIWESGWVW	inactive
DSGCLAMF	inactive
CSYWTGYCCQIVGLKSFGLV	2.4 ± 0.083
TASVLNYFSGFWRGV	1.04 ± 0.17
AYSVSRSALRSEANRIGSR	inactive

Substance	amyloid nucleation score
YIAVG	-0.483 ± 0.75
FTLDYLNSGSI	inactive
FALSWSSNGAALLRLELTTL	0.224 ± 0.44
WLFRGVVRNRRALARGIRAG	inactive
IRSYERVSRLTGVVGSTSVD	inactive
ADVLTNRIGPCIKEGIKLGI	inactive
RYVQLCADYSHGF	inactive
VDRDSWSVPFCALQKHRMQK	inactive
LRWSGFIGDAYGYLFKEWGQ	0.145 ± 0.33
QGLSGRRGYSDRY	inactive
FSCDIAVILNLDLTMVDLLF	inactive
MNGMICISNCFKDGHVTLNK	1.26 ± 0.16
ESCGRSQHPKEAKELESGAG	inactive
RWNVHCYAMLFDVGLVDARL	inactive
YFRANVRLKLEVMQRKKSPS	2.28 ± 0.075
TKSAYRWSRKVRNEFQGSMG	inactive
GDSGPDKKWHFTKY	inactive
LIYMLCYFRLLPTCGQVINR	inactive
CDHCRDKCMANRMSSRSLRW	inactive
RCHYSSWWESPCQSVM	inactive
WPAVEKSLRRECFIVLRPFG	inactive
SVYRSRSHRVFWEFLSGAT	inactive
LVWDKVSVVWNSKEGVNVRI	0.256 ± 0.22
YYFHRFL	inactive
MIIPSTVMQSLSTCILERAS	inactive
